These results are taken from patent US11306156.

Assay [1] concerns the target D3H44 light chain Q124R, N-terminal HA or FLAG tag. The assay is described as follows: LCCA, SPR of light chain tags, L1:L2 DNA 1:9 norm. to 1:1; other light chain m28.
The target of assay [2] is D3H44 light chain Q124E_V133D_S176L, N-terminal HA or FLAG tag. Put plainly: LCCA, SPR of light chain tags, L1:L2 DNA 1:9 norm. to 1:1; other light chain m17.
In assay [3] the target is D3H44 light chain Q124R_Q160K_T178R, N-terminal HA or FLAG tag. Put plainly: LCCA, SPR of light chain tags, L1:L2 DNA 1:3 norm. to 1:1; other light chain m16.
Assay [4] has as its target D3H44 light chain Q124E_S176L_T180E, N-terminal HA or FLAG tag. The assay is described as follows: LCCA, SPR of light chain tags, L1:L2 DNA 1:3 norm. to 1:1; other light chain m17.
For assay [5], the target named is D3H44 light chain Q124E_S131T_T178Y_T180E, N-terminal HA or FLAG tag. The assay is described as above.
Assay [6] has as its target D3H44 light chain Q124E_V133D_S176L, N-terminal HA or FLAG tag. Described as above.
Assay [7] deals with D3H44 light chain Q124R_Q160K_T178R, N-terminal HA or FLAG tag. Put plainly: LCCA, SPR of light chain tags, L1:L2 DNA 1:9 norm. to 1:1; other light chain m27.
In assay [8] the target is D3H44 light chain Q124R, N-terminal HA or FLAG tag. The assay is described as follows: LCCA, SPR of light chain tags, L1:L2 DNA 1:3 norm. to 1:1; other light chain m28.
Assay [9] concerns the target D3H44 light chain Q124E_V133D, N-terminal HA or FLAG tag. Put plainly: LCCA, SPR of light chain tags, L1:L2 DNA 1:9 norm. to 1:1; other light chain m24.
Assay [10] deals with D3H44 light chain Q124R, N-terminal HA or FLAG tag. The assay is described as follows: LCCA, SPR of light chain tags, L1:L2 DNA 1:3 norm. to 1:1; other light chain m18.
Assay [11] addresses D3H44 light chain Q124R_Q160K_T178R, N-terminal HA or FLAG tag. Put plainly: LCCA, SPR of light chain tags, L1:L2 DNA 1:3 norm. to 1:1; other light chain m15.
Assay [12] has the same target. The assay is described as follows: LCCA, SPR of light chain tags, L1:L2 DNA 1:3 norm. to 1:1; other light chain m27.
Assay [13] has as its target D3H44 light chain Q124E_V133E, N-terminal HA or FLAG tag. Put plainly: LCCA, SPR of light chain tags, L1:L2 DNA 1:3 norm. to 1:1; other light chain m24.
In assay [14] the target is D3H44 light chain Q124E_V133D, N-terminal HA or FLAG tag. Described as above.
Assay [15] concerns the target D3H44 light chain Q124E_T178E_T180E, N-terminal HA or FLAG tag. Put plainly: LCCA, SPR of light chain tags, L1:L2 DNA 1:3 norm. to 1:1; other light chain m17.
The target of assay [16] is D3H44 light chain Q124E_Q160E_T178E, N-terminal HA or FLAG tag. Described as above.
Assay [17] deals with D3H44 light chain Q124R_Q160K_T178R, N-terminal HA or FLAG tag. The assay is described as follows: LCCA, SPR of light chain tags, L1:L2 DNA 1:3 norm. to 1:1; other light chain m21.
The target in assay [18] is D3H44 light chain Q124R_T178R, N-terminal HA or FLAG tag. The assay is described as follows: LCCA, SPR of light chain tags, L1:L2 DNA 1:3 norm. to 1:1; other light chain m15.
For assay [19], the target named is D3H44 light chain Q124R_Q160K_T178R, N-terminal HA or FLAG tag. The assay is described as follows: LCCA, SPR of light chain tags, L1:L2 DNA 1:3 norm. to 1:1; other light chain m23.
Assay [20] has as its target D3H44 light chain Q124R_T178R, N-terminal HA or FLAG tag. Put plainly: LCCA, SPR of light chain tags, L1:L2 DNA 1:3 norm. to 1:1; other light chain m20.
Assay [21] has as its target D3H44 light chain Q124E_S131T_T178Y_T180E, N-terminal HA or FLAG tag. Put plainly: LCCA, SPR of light chain tags, L1:L2 DNA 1:3 norm. to 1:1; other light chain m14.
In assay [22] the target is D3H44 light chain Q124E_S131T_T178F_T180E, N-terminal HA or FLAG tag. Described as above.
For assay [23], the target named is D3H44 light chain Q124E_T178E_T180E, N-terminal HA or FLAG tag. Put plainly: LCCA, SPR of light chain tags, L1:L2 DNA 1:9 norm. to 1:1; other light chain m17.
Assay [24] deals with D3H44 light chain Q124R_T178R, N-terminal HA or FLAG tag. Put plainly: LCCA, SPR of light chain tags, L1:L2 DNA 1:3 norm. to 1:1; other light chain m16.
Assay [25] has as its target D3H44 light chain Q124E_T178E, N-terminal HA or FLAG tag. The assay is described as follows: LCCA, SPR of light chain tags, L1:L2 DNA 1:3 norm. to 1:1; other light chain m17.
In assay [26] the target is D3H44 light chain Q124R_T178R, N-terminal HA or FLAG tag. The assay is described as follows: LCCA, SPR of light chain tags, L1:L2 DNA 1:9 norm. to 1:1; other light chain m16.
For assay [27], the target named is D3H44 light chain Q124E_S176L_T180E, N-terminal HA or FLAG tag. The assay is described as follows: LCCA, SPR of light chain tags, L1:L2 DNA 1:9 norm. to 1:1; other light chain m14.
Assay [28] deals with D3H44 light chain Q124E_S131T_T178Y_T180E, N-terminal HA or FLAG tag. Described as above.
The target in assay [29] is D3H44 light chain Q124R_Q160K_T178R, N-terminal HA or FLAG tag. The assay is described as follows: LCCA, SPR of light chain tags, L1:L2 DNA 1:3 norm. to 1:1; other light chain m26.
For assay [30] the target is unchanged. Put plainly: LCCA, SPR of light chain tags, L1:L2 DNA 1:9 norm. to 1:1; other light chain m21.
In assay [31] the target is D3H44 light chain Q124E_S176L_T180E, N-terminal HA or FLAG tag. Put plainly: LCCA, SPR of light chain tags, L1:L2 DNA 1:3 norm. to 1:1; other light chain m14.
The target of assay [32] is D3H44 light chain Q124R_T178R, N-terminal HA or FLAG tag. The assay is described as follows: LCCA, SPR of light chain tags, L1:L2 DNA 1:9 norm. to 1:1; other light chain m15.
The target of assay [33] is tissue factor (TF) antigen (UniProt P13726). Put plainly: SPR, Fab captured on anti-penta His, TF injected; * estimated value taken from a Fab differing only in the L chain tag.
Assay [34] shares this target. The assay is described as follows: SPR; reference wild-type D3H44 Fab; * estimated value.
Assay [35] has the same target. Put plainly: SPR, Fab captured by anti-His, TF as analyte; * estimated from Fab differing only in L chain tag.
Assay [36] addresses D3H44 Fab heavy chain S186K, C-terminal ABD2-His6 tag. The assay is described as follows: LCCA: heavy chain co-expressed with two light chains, SPR detection of light chain tags; L1:L2 DNA 1:3, normalized to 1:1; competing light chain m11.
Assay [37] has as its target D3H44 Fab heavy chain L143E_K145T_S188L, C-terminal ABD2-His6 tag. The assay is described as above.
Assay [38] addresses D3H44 Fab heavy chain Q179K, C-terminal ABD2-His6 tag. The assay is described as above.
For assay [39], the target named is D3H44 Fab heavy chain L143E_K145T, C-terminal ABD2-His6 tag. The assay is described as above.

For “D3H44 Fab heavy chain L143E_K145T_S188L, ABD2-His6 tagged”, the H1L1:H1L2 normalized median ratio in assay [1] stood at 79%; in [2], 24%; in assay [3], 57%; in [4], 43%; in [5], 26%; in [6] it was 23%. In addition, the H1L1:H1L2 normalized median ratio came out at 76% in assay [7]; 84% in assay [8]; 21% in assay [9]; 69% in [10]; 74% in assay [11]; 77% in assay [12]. Further, the H1L1:H1L2 normalized median ratio in assay [13] is 31%; in [14], 16%. Moreover, the H1L1:H1L2 normalized median scalar value ln(r1/f1) is 1.32 in assay [1]; 0.28 in assay [3]; 4 in assay [7]; 1.63 in [8]; 0.81 in assay [10]; 1.03 in assay [11]. In assay [12], this substance showed an H1L1:H1L2 normalized median scalar value ln(r1/f1) of 1.22.
Regarding “D3H44 Fab heavy chain L143K_D146G, ABD2-His6 tagged”, the H2L2:H2L1 normalized median ratio in assay [1] came to 12%; in [8] it was 9%; in assay [9], 88%; in assay [14], 91%.
Take “D3H44 Fab heavy chain Q179K, ABD2-His6 tagged”: the H2L2:H2L1 normalized median ratio was found to be 95% in [5]; 94% in assay [15]; 98% in assay [16]; 6% in assay [17]; 5% in assay [11]; 7% in [18]. For the same substance, the H2L2:H2L1 normalized median ratio came out at 2% in [19], 6% in assay [20], 93% in assay [21] and 94% in assay [22].
In the case of “D3H44 Fab heavy chain Q179R, ABD2-His6 tagged”, the H2L2:H2L1 normalized median ratio in [23] amounted to 92%; in assay [3], 2%; in assay [24], 7%; in assay [4], 98%; in [15], 93%; in [25] it was 97%. The H2L2:H2L1 normalized median ratio was 97% in assay [16]; 7% in assay [17]; 15% in assay [26]; 6% in assay [18]; 85% in assay [27]; 91% in [28]. Moreover, the H2L2:H2L1 normalized median ratio in [29] was determined as 3%; in assay [30] it was 8%; in assay [19], 3%; in assay [20], 4%; in [31], 93%; in assay [21], 94%. Moreover, the H2L2:H2L1 normalized median ratio in assay [22] is 96%; in assay [32], 9%.
The Kd is the equilibrium constant for the complex coming apart. As to “D3H44 Fab heterodimer H L124E_L143E_K145T / L Q124K_V133G_S176R_T178K (H1L1 Fab of LCCA Set # 9298)”, in [33], the Change in KD with respect to wild type (-(log(KD design) - log(KD wt))) was -0.12 and the equilibrium dissociation constant (Kd) is 0.21 nM.
Take “D3H44 Fab heterodimer, heavy L124E_L143E_K145T / light Q124K_V133G_S176R_T178K”: the Change in KD of h1|1 Fab heterodimer with respect to wild type (-(log(KD design) - log(KD wt))) in assay [34] was -0.12. The dissociation constant (Kd) in assay [35] is 0.21 nM.
On the same counts, the results for “D3H44 Fab heterodimer, heavy L124E_L143E_K145T / light Q124K_V133G_S176R_T178R” are -0.07 and 0.18 nM.
In the case of “D3H44 light chain Q124E_S176L_T180E, N-terminal HA or FLAG tag”, the H2L2:H2L1 normalized median ratio in [36] and in assay [38] was 97% each time. In addition, in assay [37], the H1L1:H1L2 normalized median ratio is 43%.
For the substance “D3H44 light chain S131E, N-terminal HA or FLAG tag”, the H2L2:H2L1 normalized median ratio in [38] is 98%. The H1L1:H1L2 normalized median ratio in [39] is 53%.
